The source of these data is a protein production outcome set (Wang et al. 2014).

The nature of this data set: label from the status in PepcDB records.
Consider “MQFQDVRLMRVVVCRRLGPAKGQRRWHPLDLGTTGCFENLGAQRPTYRMRAIRMLECAMPNRLVRSLQRWRPFGLPPHRWRLAPWYWRGLQVTLEPGSAIAWIVRLTGGFEETEIDIAAALYSALYPDRCILDVGANVGIHSLAWARLAPVVALEPAPGTHSRLEANVAANGLQDRIRTLRTAAGDAVGEVDFFVAADSAFSSLNDTGRIRIRERTRVPCTTLDALAAELPLPVGLLKIDVEGLERAVIAGAAELLRRDRPVLLVEIYGGAASNPDPERTIADIRAYGYEPFVYADDAGLQPYQRHRDDRYCYFFIPSRKG”, for which the protein production entry is given as “failed”.
On to “MIMARTSNIFARVEPEVKEQAEQVLEQLGIPMSSAVSMFLKQVVLQRGIPFEMKLPKDTPPSYSSLTKEQFNAEIEKGMLDIEAGRTYPMKSVEEEMKRDYGLLEHHHHHH”, for which the protein production entry is listed as “not failed”.
The result for “GRAPRNGEKVLVEFVSANPTGPLHVGHARQAALGDAICRLYDASGWDVTREFYYNDAGNQIDNLAISVQARGRGIAPDAPDYPADGYKGDYIVEIARDFAARKSVQASDGQPVTATGDLDSLDDIRAFAVAYLRREQDLDLQAFGLAFDNYFLESSLYASGRVQETVDTLVAKGHTYEEGGALWLRTTELGTGDDKDRVMRKSEGGYTYFVPDVAYHKVKWERGFHHAVNIQGSDHHGTVARVRAGLQGLAGIPKDFPAYVLHKMVKVMRGGEEVKISKRAGSYVTMRDLIDWVGRDAVRYFLIQRRADTEFVFDIDLALSKSDENPVYYIQYAHARICTMIGNSGA” reads “failed”.
Take “MQYLIVKYSHQIFVTITILVFNIRFFLLWKNPEKPLAGFWKALPHLNDTMLLFTGLWLMKITHFSPFNAPWLGTKILLLLAYIALGMMMMRARPRSTKFYTVYLLAMCCVACIVYLAKTKVLPF”: the protein production result is “failed”.
With “MYKNILILGRGIGQVMFQNNALSGGLMLLGIAFNSWQLAVLSVLGTVVSTLTASLSGYDKEDIRNGLYGFNGTLVGIAIGVFMEINVTSILLLISGSAFSTWVARCFRYQNRVSGLTAPFIFVVWLLLVGCHYLYPSLLLSSSLEKPELTMDIFRSFCLNIGQVMFQGNILSGLFFLLGILINSRMNALYTLTGAILPLFMILYPHTDLAAWNLGLLGYNGVLCAIALGDKTGIGVVKAIFSIILSIVLQLTGMHMGIVTLTAPFVFSVWITGGLFSVFRSKS”, the protein production result is “failed”.
As for “RDITARVQAEENKRRLAEVVEANPDPVLFIQPGGAVTYLNPAARRTLGLGDGQAMPPLAAILSAAVLDSLQREGWDRAEHSGRWNIEARLQPPAGGASVPVSLMLLAHRAASGERFYSLVAHD”, the protein production result is on record as “failed”.
As for “KIGKHTIKFPIFQGGMGVGISWDELAGNVAKEGALGVISAVGTGYYKNMRFVERIVAKKPFEALNFYSKKALNEIFANARKICGNNPLGANILYAINDYGRVLRDSCEAGANIIITGAGLPTNMPEFAKDFSDVALIPIISSAKALKILCKRWSDRYKRIPDAFIVEGPLSGGHQGFKYEDCFKEEFRLENLVPKVVEASKEWGNIPIIAAGGIWDRKDIDTMLSLGASGVQMATRFLGTKECDAKVYADLLPTLKKEDILLIKSPVGYPARAINTGVIKRIEEGNAPKIACVSNCVAPCNRGEEAKKVGYCIADGLGRSYLGNREEGLYFTGANGYRVDKIISVHELIK”, the protein production entry is given as “failed”.
The entry for “MLDKLTVWIENHLAGPMAKIANQRHLRAVRDGIIATLPLIIVGSFFLIIAFPPLPESWGITQFLTSNAATILLPYRMTMYIMALYATFGIGASLAKSYNLDQVSGGILATIAFLLTLVPVAIPEEASKAAGVSGFVLPMANLGGAGMFVGIVTSIIAVEIYRVTDKSKFKITMPDNVPPAVARSFESLTPTLIVMLLIGSITYYLGFDWHTFVGNLVGPLVQAADSLLSVLLLVFLTTFFWFFGIHGASIVGSLARPLWLQLLEENTTAKAAGEALPRIAAEPFYQWFIWIGGAGATIGLAILLAFRAKSEYGSKLGKAILAPSIFNINEPVIFGVPIVLNPILMIPFIFAPMVLATIAWFATKLGLVSEVVFTAPWTLPGPIGAFMATGGDWRAAVLNIVLILVAILIYYPFFVAYDKNELAKEQGKQIEE” is “failed”; for “MSRSQLTILTNICLIEDLETQRVVMQYRAPENNRWSGYAFPGGHVENDEAFAESVIREIYEETGLTIQNPQLVGIKNWPLDTGGRYIVICYKATEFSGTLQSSEEGEVSWVQKDQIPNLNLAYDMLPLMEMMEAPDKSEFFYPRRTEDDWEKKIF” it is “not failed”.
Regarding “MKLMVNHQTHYHYSEVARNSIQYIKMIPQSSPHQLVHYWDISVPGERIMKRDAFDNLWITSSQRFDYQNLTIMAQGIVELNLQNSGCHDSVVLPHVFLQPTPATLCDAEMLNFALEIVKTKDVSSLINLSQKILERITYSPYSTNVQTTAIDAFYAAQGVCQDHAHVMIAMCRALNLPARYVSGYLYDYNSPHLASHAWAEVYVDHEWHCFDVSNQIFVPKTHIYVAIGRDYFDVAPIRGIRENGGIEEMISTVQVLAC”, the protein production entry was “failed”.
The result for “GSSGSSGNWIDVRYDLEKIESLIQSIHIDTTLYTDSDFHPSCKVTAMNCFLLELQVILHEYSNMTLNETVRNVLYLANSTLSSNKNVAESGCKECEELEEKTFTEFLQSFIRIVQMFINTS” reads “not failed”; that for “MSLNDNNTILGFDVNLICDFFLNTERQGPGSPEVTLKALSFIDNLTNKSLIADLGCGTGGQTMILAQHVPGKITGIDFFPGFIERFNKNAEKLNLQNRVKGIVGSMDDLSFEKDSLDLIWSEGAIYNIGFERGLKEWRNYLKPGGYLAVSESVWFTDQRPAEIHDFWMSAYTEIDTVPNKVAQIQKAGYIPVATFILPENCWIEHYFAPQAKAEEIFRRKHAGSRIVEELITSNHHEAELYSKYKAYYGYAFFICKKGFSLREGHHHHHH”, “not failed”; that for “MKRLMTSLAALSLTAGLAHAQAADVPDNLEKLSNFQSTGATDFTFVEQGGDFADGIKRNLERIKLPQGFRIGLYAVVPDARHMAVGPQGIVTFVGTRKDKVWAVTDRNKDRVADEVKDFAPSLRFTIPNGPCFSKDGFLYIAEQNRVLLFPAAEFFYESGDVAAFNLVKQGELIPVEEESFNHTARVCDIGPDGMIYITLGQPFNVPAPEKRELYDKWGIGGIVRMKTDGTGREVFARGIRNSVGMDIDPETGNVWFTDNQVDGMGDDIPPGEINRATEPGQNFGFPWYGGGSIRTNEYKDEEPPADAVMPVVEMDAHAADLGMMFYTGSMFPEEYRGAIFSAQHGSWNRTTPVGARVMVTTLAEDGTATTKPFAEGWIDENGEYLGRPVDVAQLRDGSILVSDDLVGAIYRIWYQPE”, “failed”.
The entry for “FFSVSNIGLHARAYKDKLFVHTASLRSGNPYKQVDLLVLDAKGETVLQGATDDNGNALLNYTLNAGHVLVSRNGRDISILPFNQPALDLSEFAVAGRENPWFDVFAWSGRDLYRPGEMLRISALLRDRDGKPVKPQPVFLRLKQPDGKTFRETRLQPAEQGYLEFTQKIPSDAPTGRWRVEFRTDPASKEAVQGLAVRVEEFLPERMKLELSSAQPVLRAKAPFTLTADAAYLYGAPAAGNRFTANLAVAVEQHPLDNMPGWFFGDATL” is “failed”.
With “MAESTQMEVETATEGTVPLPPKPTFKPLKAHEMSDGKVQFRKIAVPPNRYSPLKKAWLDIYTPIYDQMKVDIRMNLKARKVELKTRADTPDISNLQKSADFVHAFMLGFDIPDAISLLRMDELYVESFEIKDVKTLKGEHLSRAIGRLSGKGGKTKFAIENSTKTRIVIADTRIHILGAFSNIKVARSSLCSLIMGSPAGKVYSKLRSVSARLNE”, the protein production result was “failed”.
As to “MDLDYGGVPLWINRFLGEPSVLTLKDRIDPGWYRAVNTQSCPLECDCPIQWPTAIYCDHRGLNQLPSGLPFRLQYLFLQGNNITSLGSRAFDNTTYLRWLILDHNELLSEQLDNVLFSSLTRLVNLFINHNNLTKVPAGLPSGLKQLRLAYNHIEKISEGDFQNLDSLTLILLQGNRLKTIEEGDFKGLGALNLLDLSHNFLDTFPKHLPPSVQQLYLSNNSLTGLSENSLHAFSGLRYLRLGHNKLRNERLDPGAFNLTSLVELDLSYNRLTEIPSVPITLQYLYLEVNHIQEFNVSSFCRTVGPTSYSRMKILRLDGNKLEYHKLPPDWVFCLRVLHNIYI”, the protein production entry is given as “failed”.
For “ASKAFYSAGDKLFQPGDDAVASMQTYSVAQFLQPFTLNPAKASSDYLGKWVKVRGVIVDIRRKSGIAGSYYFIVTMRDEQNKTDKRLTFNFGSHNSADVEALSNGSVATIVGQVHQVQDSTIPTLQNPKVVK”, the protein production entry is “not failed”.
The entry for “MSATVPSTASSRAPATTGFRSFLPLIGAVVIWGGNWPVMKMGLAHISPLWFAACRFGSAALISFLVLGALRRLRLPSRQEWPLVIGVGLLQMGAFTALALWALQYVPPGRASVIAYATAIWVIPLSSLVLGERPSRLQWLATAFSYAGIAVIVAPALGGWELHTVMGLTMLLGASLAWSVSIIQLRANRAIRLGADMIPWECAVATVPLIALAWLRDGAPDLGAMVDIWPVIAYTGPLATALTFIVVLNVTQSLPPAATSIAMLGVPVIGLVLSTVAWHEQISLDLSIGLALIGMGVVTTALAPRLGRLAAR” is “failed”; for “MILLCFPGSEQGIGMHQFEFLGQLVLIGALAIVNILVFQKIRIPPVIGLIFTGIMLGPTGFHVIRNSGLISTLAEMGVVLLLFTIGLEFSADDLKKLRKIVLFGGTAQILLTGLVIAMFSYWLMDAIGKSVGSKEALVLGFSFSVSSTALCLKILSDRGELGFDHGKIALGILIFQDMAIVPLMFGFSFLTRGSSMPLESSFEEIALLLLFAIGMFGGFRLLMPKIVRIITELHAGEVLVLGALVLCFGAAWLASLIGLSLALGAFMAGMVIASTDGSHRISRTIDPFREAMTSIFFVSVGLLLDVNMIELPWLIAIALVVLVVKGLIMTGILMALGFSLRVSLMSGMVLAQIGEFSFVLAGTAKDAGLLDQHMFQSMLAVIVVTMIVTPALISAAPKFAAQVAPALGFMPLASKPEPKQPARAAAGPIVCRGEIHAAIIGFGLIGRNIAAVMNATNLNYTVLDTDRKTVKTMRRQGEPLFYGDCTERKSLLRIGVDHSRAVVICIPEIDAAIQCIRLVREINPGAFIIVRSRSLESTNRFYRAGADAAVTELFETSIQMFSELLKHFRVEPETILAQQEIIRREGGNIFRELVTETDGSGDDPAKKSQNGAGFVTSET” it is “failed”.
The entry for “MSTRLCEPSLRDDGAQRGTPASHGKWCDTGAFKLDETPSPVVANVSSTSDASFQFNRTPSPGKHQNHAADRSMWSLDDFVIIRKLDEGRFGKVYLAREKQSKCAVVLKCISKDMIRFHSLAHQLQREVELQEYAGRYHKNVLRLFAYFWDDVRIVLVLEYADSGTLQDLLDCYREKEQRSSLPDDKVRTILLQLLSALAFLHERDIIHRDVKPDNILFHGEKLLLADFSWAVRVNNSDPRYCRRHTVCGTLDYLAPEQVLKRGCTTKADLWAVGVVAYRMLCGFLPFEMLDARDVCSCIASGAIRYPSQLSPTARHFLQGLLRVDEALRFSCQEALNHPFMRGDCNCRISNRYIESKHRARAEEPVLQHQGSFDTT” is “failed”; for “MHNLANLYRTGWPGGVEKDTQKALDLYQKMIDLDVPQGFYDMGAMIGNRAGVKNPATDGLTFLDKAASLGNPPALTELGKFYIYVAKKKDLGLAYTHCAASQGYAPASYELGAYYKIVEHNFPKALVYYQVSVSQGGKSAAFFLSRVFGSETPPASAMWYAPDEKLREAYYSIYKKLEADPLEHHHHHH” it is “failed”; for “MRENIIEFIPKEKPCSYLKEERSLFRYFHIEECSSDLYQALLERGWRRFGKYFFVPICKNCKACLSVRKPLANLEFSRSFKRVLSKNRQTGLVIQRPMITEAHLKLYDRYHRRMSEKKGWEYSPITMESYYEMFVEGSGEFGYEFAYYRDERLVGIALVDILERSLSAVYCFYDHDYSDFSLGIFSILKQLELAKRLKIDYFYPGYWIKNHPSMGYKERFAPYEILRNEPDIDALPEWSLQGENE” it is “failed”.
